In PMC6007377:

B1: G·fC 28mer (TR) (dsDNA)
DNA 1: GTGTCACCACTGCTCACGTACAGAGCTG
DNA 2: CAGCTCTGTACGTGAGCAGTGGTGACAC
modifications: 5-formylcytosine at position 17 of strand 1, paired with G
B2: G·caC 28mer (TR) (dsDNA)
DNA 1: GTGTCACCACTGCTCACGTACAGAGCTG
DNA 2: CAGCTCTGTACGTGAGCAGTGGTGACAC
modifications: 5-carboxylcytosine at position 17 of strand 1, paired with G

Target: TDG N140A (human, UniProt Q13569 1-410, N140A)
Experiment: fluorescence anisotropy

TDG N140A, sequence (Q13569 whole entry N140A): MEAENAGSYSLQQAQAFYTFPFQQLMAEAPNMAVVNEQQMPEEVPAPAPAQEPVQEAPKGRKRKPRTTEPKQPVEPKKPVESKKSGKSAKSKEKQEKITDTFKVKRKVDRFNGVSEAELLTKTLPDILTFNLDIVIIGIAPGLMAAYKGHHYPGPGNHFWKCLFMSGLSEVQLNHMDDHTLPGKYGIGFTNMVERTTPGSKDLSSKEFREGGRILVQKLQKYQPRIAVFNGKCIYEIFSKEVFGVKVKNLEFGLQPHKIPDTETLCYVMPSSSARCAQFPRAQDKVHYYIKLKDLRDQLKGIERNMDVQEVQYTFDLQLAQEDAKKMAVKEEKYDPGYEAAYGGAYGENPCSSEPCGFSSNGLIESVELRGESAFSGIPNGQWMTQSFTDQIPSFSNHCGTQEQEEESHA

Binder | Kd [nM]
B1 | 4 ± 0.8
B2 | 2.3 ± 0.6
